Data published in patent publication US20250188151A1, “C-JUN ANTAGONIST PEPTIDES” (The University of Bath, priority 2022, published 2025).

Legend:
[1] = molecular target: cJun bZIP (Homo sapiens, UniProt P05412, S292Y); test: CD spectra and thermal denaturation of peptide/cJun heterodimers
Protocol: (§1) Circular Dichroism (CD): An Applied Photophysics Chirascan was used for CD measurements, with a 200 μL sample in a 1 mm path length CD cell. Protein/DNA samples were suspended in 150 mM potassium phosphate, 150 mM potassium fluoride and 5 mM TCEP at pH 7.4 and were equilibrated for 30 minutes before measurement. […] These scans were averaged and converted to molar residue ellipticities (MRE). Thermal denaturation experiments were performed by measuring the ellipticity at 222 nm over a 1 to 90° C. gradient at 1° C. increments. Post-melt scans at 20° C. confirmed the transitions were reversible as they overlaid within 10% of the pre-melt scan.
(§2) Circular Dichroism (CD): An Applied Photophysics Chirascan was used for CD measurements, with a 200 μL sample in a 1 mm path length CD cell. Protein/DNA samples were suspended in 150 mM potassium phosphate, 150 mM potassium fluoride and 5 mM TCEP at pH 7.4 and were equilibrated for 30minutes before measurement. […] Thermal denaturation experiments were performed by measuring the ellipticity at 222 nm over a 1 to 90° C. gradient at 1° C. increments. Post-melt scans at 20° C. confirmed the transitions were reversible as they overlaid within 10% of the pre-melt scan.
(§3) Peptide helicity was determined by quantifying the CD signal at 222 nm of peptide only samples. Thermal denaturation experiments were then used to determine the Tm of peptide-c-Jun heterodimers, which was used as an approximate measure of target engagement. […] The same 60 amino acid c-Jun bZIP construct was used for all experiments, regardless of antagonist peptide length.

[2] = molecular target: T1, cFos bZIP (human, UniProt P01100 137-193); test: CD spectra 190-260 nm, equimolar mixture compared with the average of the 10 µM component spectra
T1 construct: Purified from a His-SUMO fusion with the tag cleaved off; also called cFos bZIP domain
T1 chain: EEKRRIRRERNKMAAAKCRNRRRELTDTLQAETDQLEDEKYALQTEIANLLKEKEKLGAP

[3] = molecular target: T2, cJun bZIP (human, UniProt P05412 252-308, limits assumed); test: CD spectra at 20 °C
T2 construct: Purified from a His-SUMO fusion with the tag cleaved off; also called c-Jun bZIP domain; 60 amino acid c-Jun bZIP construct
T2 chain: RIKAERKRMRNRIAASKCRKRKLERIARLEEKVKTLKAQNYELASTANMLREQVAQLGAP

[4] = molecular target: T2, cJun bZIP
[5] = molecular target: cJun (Homo sapiens, UniProt P05412, S292Y); test: Isothermal titration calorimetry, Example 1 (MicroCal VP-ITC); format: binding; design: The same 60 amino acid c-Jun bZIP construct was used for all experiments; His-SUMO (N, cleaved yes); made in house; host or cells: E. coli; conditions: peptide 10 μM injected into cJun 1 μM, single site model; listed as HingeW
Protocol: Using a MicroCal VP-ITC instrument (Malvern), 10 μL injections of antagonist peptide (HingeW or A-FosW) at 10 μM were injected into the cell containing cJun at 1 μM. MicroCal Origin software was used to record and analyse the heat change upon addition. Control experiments involved the injection of the antagonist peptide sample into the cell containing ITC buffer alone to determine the heat of dilution which was subtracted. The resulting binding data were fit to a one site binding model to extract the enthalpy change of binding (ΔH) and the equilibrium binding constant (KD), from which the free energy change of binding (ΔG) and the entropy change of binding (AS) was calculated (Wiseman et al., 1989). Thermodynamic parameters are presented as an average of two independent experiments with errors given as one standard deviation.

[6] = CD spectra and thermal denaturation of peptide-only samples (helicity, homodimer Tm); conditions: peptide alone
Protocol: as §1, §2, §3

[7] = molecular target: T2, cJun bZIP; test: CD thermal denaturation, peptide 5 µM and c-Jun 5 µM
[8] = test system: TRE DNA; test: CD control: peptide with TRE DNA; format: binding
Protocol: Circular Dichroism (CD): An Applied Photophysics Chirascan was used for CD measurements, with a 200 μL sample in a 1 mm path length CD cell. Protein/DNA samples were suspended in 150 mM potassium phosphate, 150 mM potassium fluoride and 5 mM TCEP at pH 7.4 and were equilibrated for 30 minutes before measurement. […] These scans were averaged and converted to molar residue ellipticities (MRE).

[9] = molecular target: T3, cFos bZIP domain (Homo sapiens, UniProt P01100, S177Y); test: CD spectra/thermal denaturation with cFos bZIP (off-target); format: binding; conditions: CD spectra and thermal denaturation
T3 construct: His-SUMO (N, cleaved yes); made in house; host or cells: E. coli
T3 sequence (P01100 with tags, fused parts or gaps S177Y): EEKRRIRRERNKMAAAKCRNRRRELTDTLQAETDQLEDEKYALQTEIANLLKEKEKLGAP
Protocol: (FIG. 11D). Although this represented a negligible 1.3° C. increase in heterodimer Tm, there was crucially a much larger ΔTm for HingeW/cJun relative to the component peptide denaturation profiles than for A-FosW/cJun. The low thermal stability of the HingeW homodimer results in no observable lower baseline prior to the transition such that the Tm for this component, and thus the average, cannot be determined. However, this ΔTm can be estimated to be ˜40° C., compared to 27.5° C. for A-FosW/cJun. The TBS screen has therefore led to an optimised reduction in homodimersation more so than increased heterodimerisation with the target. This ensures that more antagonist is available as free monomer in solution and therefore in a target-dimerisation competent state. Another difference between the two denaturation profiles is the presence of a double transition for the A-FosW/cJun heterodimer, with a smaller initial transition occurring at ˜30° C.

[10] = molecular target: T2, cJun bZIP; test: cell-based or functional assay
[11] = molecular target: T2, cJun bZIP
[12] = Serum stability (LC-MS); format: in vitro ADME; conditions: human serum, 37° C.
Protocol: Serum Stability: Peptide stocks (600 μM) were prepared in water and 50 μL added to 950 μL human serum (Merck) before incubation at 37° C. […] The supernatant was analysed by LC-MS and quantified using the sum of the two largest charge state intensities (1: 9+, 10+; 23,24: 3+, 4+).

[13] = molecular target: T2, cJun bZIP; test: ITC (PEAQ-ITC), peptide injected into cJun, one site model; Table 7 ITC, run at a lower temperature than the earlier 1/cJun ITC measurement

B1: HingeW (peptide)
peptide: MASLEQRAEELARENEELEKEAEELVVEEDVLEEEIEQLEERNYALRKEIEDLQKQLEKLGAPHHHHHH
notes: Recombinant, capped (MAS at the N-terminus, GAP at the C-terminus) and C-terminally 6xHis-tagged, 69 amino acids; also called peptide 1
[1]
  increase in heterodimer Tm relative to A-FosW/cJun: 1.3 °C
[1]; heterodimer with c-Jun, equimolar, 10 μM total
  Fraction helicity at 20° C. (CD): 34.7%
[1]; heterodimer with cJun bZIP, Example 1, listed as HingeW
  Tm (° C.) (CD): 71.2 °C
[1]; heterodimer with cJun vs average of component profiles, listed as HingeW
  ΔTm from component average (CD): ~40 °C
[2]
  binding result: no binding (tested: 5 µM of each peptide)
[3]
  increase in α-helical content relative to the average of the two component spectra: 82%
[4]
  increase in heterodimer Tm against A-FosW/cJun: 1.3 ° C.
[5]
  Kd: 14 nM
[6]
  Fraction helicity at 20° C. (CD): 27.2%
  helicity in isolation, less helical relative to A-FosW: 12.9%
[7]
  Tm (° C.) of peptide-c-Jun heterodimer: 71.2 ° C.
[8]
  interaction with TRE DNA: no interaction
[9]
  interaction with cFos bZIP: no interaction
[10]
  IC50, EMSA of free TRE DNA band: 9600 nM
  TBS assay colony numbers relative to A-FosW: 10%
  TBS assay colony numbers relative to TRE-mDHFR alone: 66%
[11]
  Tm (° C.) (CD): 71.2 ° C.
[12]; after 96 hours
  peak intensities relative to starting values: no peaks corresponding to 1 are observed
[12]; at 24 hours
  degraded: 67%
[12]; exponential decay fit
  half-life: 18.9 h
[13]
  Kd: 0.21 nM
